# Source: patent US20160075743A1 (AGRESEARCH, published 2016)
# T1: Yersinia entomophaga YenB (TcB component of the Yen-Tc toxin complex) (Yersinia entomophaga, UniProt B6A880 1-1487)
# T1 sequence: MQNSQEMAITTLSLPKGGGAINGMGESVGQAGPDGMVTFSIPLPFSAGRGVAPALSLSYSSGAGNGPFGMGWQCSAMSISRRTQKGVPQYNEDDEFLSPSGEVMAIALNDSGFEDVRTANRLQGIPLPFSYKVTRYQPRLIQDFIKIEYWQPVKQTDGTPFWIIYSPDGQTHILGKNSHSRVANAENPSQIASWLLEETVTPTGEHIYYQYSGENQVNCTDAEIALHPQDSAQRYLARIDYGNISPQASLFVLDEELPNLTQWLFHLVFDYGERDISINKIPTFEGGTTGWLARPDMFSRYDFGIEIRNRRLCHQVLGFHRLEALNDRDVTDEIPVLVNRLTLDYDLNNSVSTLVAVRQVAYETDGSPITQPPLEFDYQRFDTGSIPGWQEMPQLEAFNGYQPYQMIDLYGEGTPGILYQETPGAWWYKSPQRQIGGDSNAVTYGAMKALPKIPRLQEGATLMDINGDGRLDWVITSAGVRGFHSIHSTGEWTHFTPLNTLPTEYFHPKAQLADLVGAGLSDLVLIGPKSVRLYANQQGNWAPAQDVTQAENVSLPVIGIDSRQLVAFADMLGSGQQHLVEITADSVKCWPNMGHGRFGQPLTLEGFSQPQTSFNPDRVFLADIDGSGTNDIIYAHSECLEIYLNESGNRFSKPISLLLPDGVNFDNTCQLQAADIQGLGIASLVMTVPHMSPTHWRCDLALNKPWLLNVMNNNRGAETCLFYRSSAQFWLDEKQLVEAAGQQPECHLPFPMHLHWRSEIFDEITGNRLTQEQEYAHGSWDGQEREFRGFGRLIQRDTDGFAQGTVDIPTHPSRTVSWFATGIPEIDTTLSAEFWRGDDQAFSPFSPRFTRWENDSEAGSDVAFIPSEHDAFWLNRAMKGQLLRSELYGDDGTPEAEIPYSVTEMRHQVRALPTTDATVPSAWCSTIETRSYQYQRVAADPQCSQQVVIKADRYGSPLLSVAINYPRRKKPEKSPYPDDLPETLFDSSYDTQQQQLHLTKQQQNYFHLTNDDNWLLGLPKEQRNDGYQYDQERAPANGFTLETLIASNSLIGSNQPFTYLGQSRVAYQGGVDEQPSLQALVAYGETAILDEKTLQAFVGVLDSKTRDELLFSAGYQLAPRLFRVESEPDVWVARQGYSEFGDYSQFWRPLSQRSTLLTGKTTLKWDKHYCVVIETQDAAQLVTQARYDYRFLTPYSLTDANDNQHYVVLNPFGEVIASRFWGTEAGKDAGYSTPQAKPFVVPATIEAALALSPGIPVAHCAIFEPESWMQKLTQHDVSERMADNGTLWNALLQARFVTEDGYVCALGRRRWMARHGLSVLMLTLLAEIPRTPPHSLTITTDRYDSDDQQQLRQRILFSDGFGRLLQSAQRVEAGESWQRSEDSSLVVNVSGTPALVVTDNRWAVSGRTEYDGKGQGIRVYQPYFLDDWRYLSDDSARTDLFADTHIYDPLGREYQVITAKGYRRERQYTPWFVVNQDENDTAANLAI
# Key:
# [1] = biological target: T2, YenB/YenC2-N complex (hollow shell) (Yersinia entomophaga, UniProt B6A880 1-1487; B6A882 1-690); assay: SAXS and crystal structure; encapsulation in the shell
# T2 construct: Heterodimer of YenB and YenC2-N. It is used here as the partner that encapsulates YenC2-C or GFP; also called TcB:TcC shell; BC shell
# [2] = biological target: T1, Yersinia entomophaga YenB (TcB …); assay: co-expression, co-purification by Ni-affinity and SEC
# [3] = biological target: T1, Yersinia entomophaga YenB (TcB …); assay: purification after precipitation of the C-terminal domain at pH 4.5-5.0
# [4] = biological target: T1, Yersinia entomophaga YenB (TcB …); assay: X-ray crystal structure (figure legend)
# [5] = biological target: T1, Yersinia entomophaga YenB (TcB …); assay: co-expression in E. coli, size-exclusion chromatography
binder,measurement,setting,value
"C-terminal region of YenC2 (YenC2-C) (other, also called YenC-C; TcC-C) APLDWLDLDTTNASRDIVKAIYQLNQIDGPHRGVRDTYQRMTESTGMILQETLNNEAVLKGIKQKDKEKKSRGMKFTNSKLKTYAAHAGVLNTLQPDPVYKDGFLNLPGSLGNKNTFPGVELIEDKVKPSLSQYHPDKLGKSQRWKPESSLGYYRVADTEAFITGIRSQYKSSGTDLHAVVEGRIRDHLLANNNVLPKMAGIAGLHAEVQALNYIISNPDIEGGNAERLNGSYIFTQRLVGDVNQDFPACYNCSGIISGLENVMTGRVNNDVRLKRRKSF",binding result,[1],binds
"Yersinia entomophaga YenC2 (TcC component) (other, Expressed as the whole protein; When co-expressed with YenB it self-cleaves after M690 into YenC2-N and YenC2-C, and both fragments stay in the complex) MDIQLFSKTPSVTVFDNRGLSVRDIAYRRHPDTPKVTEECITYHQFDFRGFLAQSLDPRLNHKEVTNFSYLTDLNGNIIYTQSVDAGNTLVLNDTEGRSVIAMTNISRGENGKDDLSLAVTRTFQYENAPLPGRPLSVTEQVNGENARITEHFVYAGNTPQEKNLNLAGQCVSYYDAAGLIQTDSVSLTGKPLSVSRKLLKNLDDTNILADWQGNDTSAWNSLLATEIYTTVTRTDAAGAVLTTIDAVGNQQRVAFDIAGQLSASWLTLKGGQEQVIIKVLTYSAAGQKLREEGGNGVVTTYTYEAETQRLIGIKTERPNGHAAGAKVLQDLRYEYDPVGNVLSITNDAEETRFWRNQKVVPENAYRYDSLYQLVSASGREVAGAGQQGSDLPSPLVPLPSDSSVYTNYTRTYTYDSAGNLMRIRHSAPATNNNYTLNITVSERSNRGVMSSLTENPADVDALFTASGSQKCLQQGQSLIWTPRGELRTVLLVARGETADDSESYRYDGSSQRILKISSQQTNHSARVQRALYLPGLEWRTMTGGVAEAENLQVICIGEAGRAQVRVLHWESGKPDGIINDQIRWSYDNLTCSSGLEVDGDGLVISMEEYYPYGGTAVWAARSHIETAYKTVRYSGKERDATGLYYYGFRYYQPWAGRWLSADPAGTVDGLNLYRMVRNNPLRLTDPDGMAPLDWLDLDTTNASRDIVKAIYQLNQIDGPHRGVRDTYQRMTESTGMILQETLNNEAVLKGIKQKDKEKKSRGMKFTNSKLKTYAAHAGVLNTLQPDPVYKDGFLNLPGSLGNKNTFPGVELIEDKVKPSLSQYHPDKLGKSQRWKPESSLGYYRVADTEAFITGIRSQYKSSGTDLHAVVEGRIRDHLLANNNVLPKMAGIAGLHAEVQALNYIISNPDIEGGNAERLNGSYIFTQRLVGDVNQDFPACYNCSGIISGLENVMTGRVNNDVRLKRRKSF",binding result,[2],binds
"N-terminal portion of YenC1 (other, Fragment left in complex with YenB after the C-terminal domain precipitated at low pH; also called YenC1 - N term; N-terminal portions of YenC) MNQFDSALHQGTPGVSVLDNRGHVIRELRYYRHPDTPQEIAERIAFHQYDSYGFISQSIDPRLAERRKQDSSVKPNLSYFTALSGEVLRTDGVDAGTIFSLNDIAARPAISISATGVSHTWQYEGENRPGRVLSRSEREKDREERIIERFYWAGSDASQKANNLAGQCLRHYNSAGLNQTLSIALTGTPISACFQPLLESAEPEWQGTNESAWLELLTPEIFTTYNRADANGETLVQTDAMGNIQRLAYDVAGFLKSSWLSLKGGQEQIIVKSLTYSAAGQKLQEEHGNGVLTTYSYEAETQRLIGIRTERPAGHLSGARVFQDLRYTYDPVGNVLRITNDAEATRFWRNQKVVPENTYIYDTLYQLVSANGREMANIPQQSSQLPTLSPIDNNAYTNYIRNYHYDSAGNLMQIRHTSAAANNSYTTNITVSKYSNRAVLSSLTDDVDKVEAFFDAAGRQNQLLPGQTLSWNARGELAKVTPVARDGQESDSETYRYDANSQRVSKMAIQQSNNNTQTRRVLYLAGLERRTIHQGNTLFETLLVVKIGEAGRAQVQAMHWELGQPTEVANDELRYSYDNLIGSSGLEVDGTGQLISQEEYYPYGGTAVWMARSQREASDKAYGYSGKERDATGLYYYGFRYYQPWAGRWLSADPAGTIDGLNLFRMVRNNPIVLHDPDGL",binding result,[3],binds
"conserved N-terminal 76 kDa portion of YenC2 (YenC2-N) (other, Made by self-cleavage of YenC2 after M690 when co-expressed with YenB; The C-terminal fragment was removed at pH 4.5; also called YenC2NTR; YenC2 - N term) MDIQLFSKTPSVTVFDNRGLSVRDIAYRRHPDTPKVTEECITYHQFDFRGFLAQSLDPRLNHKEVTNFSYLTDLNGNIIYTQSVDAGNTLVLNDTEGRSVIAMTNISRGENGKDDLSLAVTRTFQYENAPLPGRPLSVTEQVNGENARITEHFVYAGNTPQEKNLNLAGQCVSYYDAAGLIQTDSVSLTGKPLSVSRKLLKNLDDTNILADWQGNDTSAWNSLLATEIYTTVTRTDAAGAVLTTIDAVGNQQRVAFDIAGQLSASWLTLKGGQEQVIIKVLTYSAAGQKLREEGGNGVVTTYTYEAETQRLIGIKTERPNGHAAGAKVLQDLRYEYDPVGNVLSITNDAEETRFWRNQKVVPENAYRYDSLYQLVSASGREVAGAGQQGSDLPSPLVPLPSDSSVYTNYTRTYTYDSAGNLMRIRHSAPATNNNYTLNITVSERSNRGVMSSLTENPADVDALFTASGSQKCLQQGQSLIWTPRGELRTVLLVARGETADDSESYRYDGSSQRILKISSQQTNHSARVQRALYLPGLEWRTMTGGVAEAENLQVICIGEAGRAQVRVLHWESGKPDGIINDQIRWSYDNLTCSSGLEVDGDGLVISMEEYYPYGGTAVWAARSHIETAYKTVRYSGKERDATGLYYYGFRYYQPWAGRWLSADPAGTVDGLNLYRMVRNNPLRLTDPDGM",binding result,[4],binds
"Yersinia entomophaga YenC1 (TcC component) (other, Expressed as the whole protein; When co-expressed with YenB it auto-proteolyses into two fragments, and both co-elute with YenB) MNQFDSALHQGTPGVSVLDNRGHVIRELRYYRHPDTPQEIAERIAFHQYDSYGFISQSIDPRLAERRKQDSSVKPNLSYFTALSGEVLRTDGVDAGTIFSLNDIAARPAISISATGVSHTWQYEGENRPGRVLSRSEREKDREERIIERFYWAGSDASQKANNLAGQCLRHYNSAGLNQTLSIALTGTPISACFQPLLESAEPEWQGTNESAWLELLTPEIFTTYNRADANGETLVQTDAMGNIQRLAYDVAGFLKSSWLSLKGGQEQIIVKSLTYSAAGQKLQEEHGNGVLTTYSYEAETQRLIGIRTERPAGHLSGARVFQDLRYTYDPVGNVLRITNDAEATRFWRNQKVVPENTYIYDTLYQLVSANGREMANIPQQSSQLPTLSPIDNNAYTNYIRNYHYDSAGNLMQIRHTSAAANNSYTTNITVSKYSNRAVLSSLTDDVDKVEAFFDAAGRQNQLLPGQTLSWNARGELAKVTPVARDGQESDSETYRYDANSQRVSKMAIQQSNNNTQTRRVLYLAGLERRTIHQGNTLFETLLVVKIGEAGRAQVQAMHWELGQPTEVANDELRYSYDNLIGSSGLEVDGTGQLISQEEYYPYGGTAVWMARSQREASDKAYGYSGKERDATGLYYYGFRYYQPWAGRWLSADPAGTIDGLNLFRMVRNNPIVLHDPDGLAPGFFERISSFRKKDTLTISSLKGTGPFYTRSESEIDIDFLFSRQDRDKDFPPQNHKELSAEDRREVLEVSSGENITSANKSSKWYAGTHWETKPLKNNTDLVVLHNGVQGAAGININLNDIKPGRSVLVTAGTLTGCTMITGVKGNNFYALHAGTGTPSENWVTGEHGVTDNFRMLNKLIPDAGIDLNPEAVNDSLLTILDYFDNGTIAYNGKKGSEIHRDADNILNYRTTGYENTVGVSFSLLTKDKNGEVSASTLLELGELKPHKKHRTRGQFGMTELKYEARKNTVVKLR",binding result,[5],binds
